As a reminder, the Kd is the free concentration of one partner at which half of the binding sites on the other are occupied at equilibrium, for simple one-to-one binding. Low readings indicate tighter binding, high ones weaker binding. For orientation: koff means the first-order rate constant of dissociation. As a reminder, the kon is the rate constant with which the complex forms. The low end stands for slow association, the high end for fast association. By EC50 is commonly meant the concentration giving half of the maximal effect. Higher therefore signals a less potent agent.

This note sets out measurements from US20240417463A1 (ADAGENE PTE, published 2024).

In assay [1] the target is human CD47 on the cell surface (CEM, Raji and other human tumor cells, human RBCs) (human) (UniProt Q08722). Briefly: flow cytometry, human RBCs, batch 2. In general terms: A flow cytometer gives signals particle by particle.
Assay [2] shares this target.
For assay [3], the target named is T1, hCD47-ECD/Fc protein (Sinobiological) (human, UniProt Q08722 19-139, biotinylated in the Octet assay, sites not stated).
T1 construct: extracellular domain; Bought protein; also called human CD47-Fc antigen; recombinant hCD47-ECD/Fc; not shown: Fc part of the bought fusion protein
Nature of the assay: BLI (Octet RED96), biotin-hCD47-ECD/Fc on SA sensors, 1:1 model; ForteBio BLI affinity ranking, not ELISA. In general terms: Biolayer interferometry detects binding as a change in optical thickness at a sensor tip.

Assay [4] has as its target T1, hCD47-ECD/Fc protein (Sinobiological). Nature of the assay: BLI (Octet RED96), biotin-hCD47-ECD/Fc on SA sensors, 1:1 model.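 Note: test antibodies as analytes, 300 s association then 300 s dissociation in running buffer, with benchmark reference antibodies run as controls.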
Assay [5] addresses T2, human CD47 on the cell surface (CEM, Raji and other human tumor cells, human RBCs) (human, UniProt Q08722 19-323).
T2 construct: whole, on cells; also called CD47 on tumor cell surface; CD47 on RBCs
Briefly: flow cytometry, CEM cells, batch 2; CEM tumor cells, batch 2.

In assay [6] the target is T2, human CD47 on the cell surface (CEM, …). Briefly: flow cytometry, Raji cells, batch 3; Raji tumor cells, batch 3.
The target is the same in assay [7]. Nature of the assay: cell-based or functional assay.

Turning to “Isotype control (RBC binding, Table 15) (antibody)”, the max MFI in assay [1] was determined as 105 MFI.

In assay [2], Neg ctrl (antibody) showed a % of events double-positive for CFSE-Raji and BMQC-Jurkat (cell clustering), antibody at 100 nM of 10.3%.

B1: TY25032 (antibody, V domains shown)
VH: EVQLVESGGGLVQPGGSLRLSCAASGFTFTSYGIHWVRQAPGKGLEWVSAISGSGGSTYYADSVKGRFTISRDNSKNTLYLQLNSLRAEDTAVYYCARSGHAYDFDYWGQGTLVTVSS
VL: DIQLTQSPSSLSASVGDRVTITCRASQSVDFYGISFLDWYQQKPGKAPKLLIYAASTLQSGVPSRFSGSGSGTDFTLTISSLQPEDFATYYCQQGGTSPWTFAQGTKVEIKR
As for B1, in assay [3], binding was characterised by a dissociation constant (Kd) of 2.73 nM, the koff amounted to 0.000806 s⁻¹ and the kon came out at 295000 M⁻¹ s⁻¹.

B2: TAC2407 (antibody, V domains shown)
VH: EVQLVESGGGLVKPGGSLRLSCAASGLTFERAWMNWVRQAPGKGLEWVGRIKRKTDGETTDYAAPVKGRFSISRDDSKNTLYLQMNSLKTEDTAVYYCAGSNRAFDIWGQGTMVTVSS
VL: DIVMTQSPDSLAVSLGERATINCKSSQSVLYAGNNRNYLAWYQQKPGQPPKLLINQASTRASGVPDRFSGSGSGTEFTLIISSLQAEDVAIYYCQQYYTPPLAFGGGTKLEIK
notes: Benchmark anti-CD47 antibody; also called 13H3; TJC4
As to B2, in assay [4], the Kd was 1.4 nM, the koff was 0.000729 s⁻¹ and the kon turned out to be 520000 M⁻¹ s⁻¹. This molecule also yielded an EC50 in assay [5] of 1.18 nM. The same molecule displayed a 50% effective concentration (EC50) in assay [6] of 1.97 nM. Besides, in assay [7], the “EC50 of macrophage phagocytosis of CEM cells, donor A” value is 4.4 nM; the “EC50 of macrophage phagocytosis of CEM cells, donor B” value worked out at 0.83 nM; the “Max. Phagocytosis (%), donor A” value is 29.7%; the “Max. Phagocytosis (%), donor B” value is 29%.
